Test results taken from article PMC6154215.

Columns and labels:
Experiment in all cases: fluorescence polarisation
[1] = molecular target: monovalent ExoS L423A peptide, fluorescently labeled (Pseudomonas aeruginosa) (UniProt Q51451)
[2] = molecular target: bivalent ExoS L423A peptide, fluorescently labeled (Pseudomonas aeruginosa) (UniProt Q51451)
[3] = molecular target: bivalent wild-type ExoS peptide, fluorescently labeled (Pseudomonas aeruginosa)

What does the source list for “tobacco 14-3-3 homodimer T14-3-3cΔC (domain or fragment)”?
Kd [1]: 127 µM; Kd [2]: 5.9 µM; Kd [3]: 0.0455 µM
